{"source": "paper PMC12373997", "about": "“Conserved function of the HAUS6 calponin homology domain in anchoring augmin for microtubule branching” (Nature Communications, 2025)", "binders": {"B1": {"name": "D. melanogaster augmin N-clamp with Dgt4 lacking its N-terminal extension (complex)", "chain 1": "MSDAVDKMLAGMAANRQTMNRQLAKIDEIMERSNNTLLHIESNSKAFSQNVALSETQKMYNLRPEAEMTLSKILENFKLLMSSSDQREETYSALEGCLAYRHRVEHLGSSVRKLVALYDTVGQMKNSQEEQYASEDSP", "chain 2": "MDRTIIAPWKAEEKEQSEKLHRKLQGLALVHPLPDELRKLIAWDMFLKPNQVAFVHVMHYLFRLLDPAEFKRRFFWPITDKKSEANFRSSTVEYLKHLNEKHQLHWANIKSYLVVMPGGMRFINFLLEFVGFVIQELIKQREKSLGLEAGTPNVSAKVMARQNAVMKEYASSYVVNLEENTALLRDKTQKIRRLMADLSADMGVPEEQLADDGFLDEFEATAALGVERVITQPTERKFDLEASLCGLKEAIDLFQVKQAENNQSKEAVEKALRGMRVLFD", "chain 3": "METNVDFSSISSKLYRKYAQHVRNLKDVCVSKTVMKPGAFFDSLQQMMEEEAAATTPPRDLSSVADYAELFKTLEEYPANLQKMPKKRELQRTNSTLLRGADESVAMGINTSNVSLSLTRLEEQRSAVDVYNDFKGFQRKLAKIYDEAAALDTTESIYKQKLTQLHGFAQQLEKLMPTGGESPPDAFTSEQ", "chain 4": "MDDIQYLLHLEAMRRFQEDSRNVKRQVEEQVRIWLDAKCEYQRDFGRLARLLKCGALQAAVDAHRVSDVNQVDQAAKDIASLRSKLGS", "modifications": "Dgt4-deltaNT start (MDDIQY) read from the printed N-del primer, Dgt4 end from 9RPD entity 1; Dgt6 from 9RPD entity 2; Msd5 end is estimated from the length of the 9RPD fusion entity; Msd1 is assumed …"}}, "biological_target": "T1, Taxol-stabilized microtubules polymerised from purified porcine brain tubulin (porcine, UniProt P02550 1-451; P02554 1-439)", "T1 construct": "P81947 was used only for the MD model; Q6B856 was used only for the MD model; Polymer of α/β-tubulin heterodimers (13- and 14-protofilament MTs in cryo-EM); brain tubulin is probably a mix of isotypes; Concentrations are α/β-tubulin heterodimer molarity; also called MTs; MT; source: tubulin purified from porcine brain; polymerised in vitro with GTP and paclitaxel", "experiment": "co-sedimentation; tubulin co-sedimentation: taxol-stabilized MTs (varied, α/β-tubulin heterodimer molarity) with 1 µM purified N-clamp, 0.25 mg/ml BSA, BRB80-MT buffer (80 mM PIPES, 1 mM MgCl2, 1 mM EGTA, 12.5% glycerol, pH 6.8), 20 min at room temperature, 200,000 g 10 min 27 °C; SDS-PAGE densitometry of pellet; apparent Kd from a quadratic fit", "conditions": "both partners purified", "data": [{"binder": "B1", "values": [{"measurement": "Kd", "result": 2.9, "unit": "µM"}]}]}
